According to publication PMC9941469:

Target: phosphorylated Smad5 (pSmad5), mouse (UniProt P97454)
Test: Co-Immunoprecipitation
Settings: parent: est. 100; read off a plot

UniProt P97454, sequence (P97454 whole entry): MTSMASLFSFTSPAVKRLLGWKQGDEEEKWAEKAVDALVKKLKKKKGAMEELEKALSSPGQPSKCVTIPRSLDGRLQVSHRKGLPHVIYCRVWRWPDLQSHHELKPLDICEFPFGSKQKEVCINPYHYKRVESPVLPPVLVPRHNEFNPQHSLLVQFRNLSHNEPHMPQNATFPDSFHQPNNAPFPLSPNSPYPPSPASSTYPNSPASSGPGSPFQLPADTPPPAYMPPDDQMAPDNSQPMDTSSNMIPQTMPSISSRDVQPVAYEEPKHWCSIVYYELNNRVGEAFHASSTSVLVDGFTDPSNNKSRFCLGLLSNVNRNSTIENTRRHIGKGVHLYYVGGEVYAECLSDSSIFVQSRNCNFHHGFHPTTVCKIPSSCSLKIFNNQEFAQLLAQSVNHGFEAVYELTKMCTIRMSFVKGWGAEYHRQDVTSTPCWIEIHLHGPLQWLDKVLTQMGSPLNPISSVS

- percent of parent: 70 % of WT
Substance: Hoxd13 (homeobox D13), wild type, mouse (from UniProt P70217) R306L
